Measurements as given in patent US20050244864A1, “Development and use of fluorescent probes of unbound analytes” (priority 2004, published 2005).
Positions count from the first letter of the chain named. In names and notes the source's numbering stands.

B1: L2P22H10: acrylodan-labeled rI-FABP-L72A mutein: M18 I, G31 WT, F55 G, A73 M (protein, UniProt P02693 2-132, looked up, variant M18I F55G L72A A73M)
Fatty acid-binding protein, …: AFDGTWKVDRNENYEKFIEKMGINVVKRKLGAHDNLKLTITQEGNKFTVKESSNGRNIDVVFELGVDFAYSAMDGTELTGTWTMEGNKLVGKFKRVDNGKELIAVREISGNELIQTYTYEGVEAKRIFKKE
modifications: acrylodan label
notes: acrylodan-labeled rI-FABP-L72A mutein: M18 I, G31 WT, F55 G, A73 M
B2: L2P8A6: acrylodan-labeled rI-FABP-L72A mutein: M18 I, G31 V, F55 V, A73 V (protein, UniProt P02693 2-132, looked up, variant M18I G31V F55V L72A A73V)
Fatty acid-binding protein, …: B1 Fatty acid-binding protein, … with G31V, G55V, M73V
modifications: acrylodan label
B3: L2P23G7: acrylodan-labeled rI-FABP-L72A mutein: M18 V, G31 F, F55 L, A73 WT (protein, UniProt P02693 2-132, looked up, variant M18V G31F F55L L72A)
Fatty acid-binding protein, …: B1 Fatty acid-binding protein, … with I18V, G31F, G55L, M73A
modifications: acrylodan label
notes: acrylodan-labeled rI-FABP-L72A mutein: M18 V, G31 F, F55 L, A73 WT
B4: L2P21G3: acrylodan-labeled rI-FABP-L72A mutein: M18 I, G31 M, F55 M, A73 WT (protein, UniProt P02693 2-132, looked up, variant M18I G31M F55M L72A)
Fatty acid-binding protein, …: B1 Fatty acid-binding protein, … with G31M, G55M, M73A
modifications: acrylodan label
notes: acrylodan-labeled rI-FABP-L72A mutein: M18 I, G31 M, F55 M, A73 WT
B5: L2P11B4: acrylodan-labeled rI-FABP-L72A mutein: M18 V, G31 A, F55 WT, A73 W (protein, UniProt P02693 2-132, looked up, variant M18V G31A L72A A73W)
Fatty acid-binding protein, …: B1 Fatty acid-binding protein, … with I18V, G31A, G55F, M73W
modifications: acrylodan label
notes: acrylodan-labeled rI-FABP-L72A mutein: M18 V, G31 A, F55 WT, A73 W
B6: L2P8A5: acrylodan-labeled rI-FABP-L72A mutein: M18 V, G31 A, F55 W, A73 W (protein, UniProt P02693 2-132, looked up, variant M18V G31A F55W L72A A73W)
Fatty acid-binding protein, …: B1 Fatty acid-binding protein, … with I18V, G31A, G55W, M73W
modifications: acrylodan label
B7: L2P2E11: acrylodan-labeled rI-FABP-L72A mutein: M18 I, G31 F, F55 WT, A73 WT (protein, UniProt P02693 2-132, looked up, variant M18I G31F L72A)
Fatty acid-binding protein, …: B1 Fatty acid-binding protein, … with G31F, G55F, M73A
modifications: acrylodan label
B8: L2P22G6: acrylodan-labeled rI-FABP-L72A mutein: M18 I, G31 Y, F55 WT, A73 G (protein, UniProt P02693 2-132, looked up, variant M18I G31Y L72A A73G)
Fatty acid-binding protein, …: B1 Fatty acid-binding protein, … with G31Y, G55F, M73G
modifications: acrylodan label
notes: acrylodan-labeled rI-FABP-L72A mutein: M18 I, G31 Y, F55 WT, A73 G
B9: L2P12C5: acrylodan-labeled rI-FABP-L72A mutein: M18 I, G31 I, F55 M, A73 I (protein, UniProt P02693 2-132, looked up, variant M18I G31I F55M L72A A73I)
Fatty acid-binding protein, …: B1 Fatty acid-binding protein, … with G31I, G55M, M73I
modifications: acrylodan label
B10: L2P23A4: acrylodan-labeled rI-FABP-L72A mutein: M18 V, G31 I, F55 L, A73 V (protein, UniProt P02693 2-132, looked up, variant M18V G31I F55L L72A A73V)
Fatty acid-binding protein, …: B1 Fatty acid-binding protein, … with I18V, G31I, G55L, M73V
modifications: acrylodan label
B11: L2P17H10: acrylodan-labeled rI-FABP-L72A mutein: M18 G, G31 F, F55 WT, A73 L (protein, UniProt P02693 2-132, looked up, variant M18G G31F L72A A73L)
Fatty acid-binding protein, …: B1 Fatty acid-binding protein, … with I18G, G31F, G55F, M73L
modifications: acrylodan label
notes: acrylodan-labeled rI-FABP-L72A mutein: M18 G, G31 F, F55 WT, A73 L
B12: L2P22E6: acrylodan-labeled rI-FABP-L72A mutein: M18 V, G31 A, F55 I, A73 W (protein, UniProt P02693 2-132, looked up, variant M18V G31A F55I L72A A73W)
Fatty acid-binding protein, …: B1 Fatty acid-binding protein, … with I18V, G31A, G55I, M73W
modifications: acrylodan label
notes: acrylodan-labeled rI-FABP-L72A mutein: M18 V, G31 A, F55 I, A73 W
B13: L2P8B8: acrylodan-labeled rI-FABP-L72A mutein: M18 WT, G31 WT, F55 WT, A73 F (protein, UniProt P02693 2-132, looked up, variant L72A A73F)
Fatty acid-binding protein, …: B1 Fatty acid-binding protein, … with I18M, G55F, M73F
modifications: acrylodan label
notes: acrylodan-labeled rI-FABP-L72A mutein: M18 WT, G31 WT, F55 WT, A73 F
B14: L2P7F4: acrylodan-labeled rI-FABP-L72A mutein: M18 V, G31 V, F55 WT, A73 I (protein, UniProt P02693 2-132, looked up, variant M18V G31V L72A A73I)
Fatty acid-binding protein, …: B1 Fatty acid-binding protein, … with I18V, G31V, G55F, M73I
modifications: acrylodan label
notes: acrylodan-labeled rI-FABP-L72A mutein: M18 V, G31 V, F55 WT, A73 I
B15: L2P18H12: acrylodan-labeled rI-FABP-L72A mutein: M18 I, G31 V, F55 WT, A73 G (protein, UniProt P02693 2-132, looked up, variant M18I G31V L72A A73G)
Fatty acid-binding protein, …: B1 Fatty acid-binding protein, … with G31V, G55F, M73G
modifications: acrylodan label
notes: acrylodan-labeled rI-FABP-L72A mutein: M18 I, G31 V, F55 WT, A73 G
B16: L2P16A3: acrylodan-labeled rI-FABP-L72A mutein: M18 I, G31 L, F55 WT, A73 G (protein, UniProt P02693 2-132, looked up, variant M18I G31L L72A A73G)
Fatty acid-binding protein, …: B1 Fatty acid-binding protein, … with G31L, G55F, M73G
modifications: acrylodan label
notes: acrylodan-labeled rI-FABP-L72A mutein: M18 I, G31 L, F55 WT, A73 G

Tests used:
Format in all cases: binding
[1] = Probe fluorescence ratio response to palmitate:BSA complex, relative to ADIFAB2 (ΔR/ΔRAD2); settings: fluorescence response (R-Ro) relative to ADIFAB2; palmitate
Method in brief: (§1)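 Complexes clamp unbound FFA at fixed levels (ΔR ≈0.4 by ADIFAB2, [FFAu] 100–1000 nM). Plate wells: complex or FFA-free BSA at 6 μM BSA in HEPES; probe added after background read. Ex 375/em 550 and 457 nm; ratio R = F550/F457.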

[2] = Probe fluorescence ratio response to oleate:BSA complex, relative to ADIFAB2 (ΔR/ΔRAD2); settings: fluorescence response (R-Ro) relative to ADIFAB2; oleate
Method in brief: as §1

[3] = Probe fluorescence ratio response to linolenate:BSA complex, relative to ADIFAB2 (ΔR/ΔRAD2); settings: fluorescence response (R-Ro) relative to ADIFAB2; linolenate
Method in brief: as §1

[4] = Probe fluorescence ratio response to palmitoleate:BSA complex, relative to ADIFAB2 (ΔR/ΔRAD2); settings: fluorescence response (R-Ro) relative to ADIFAB2
[5] = Probe fluorescence ratio response to linoleate:BSA complex, relative to ADIFAB2 (ΔR/ΔRAD2); settings: fluorescence response (R-Ro) relative to ADIFAB2; linoleate
Method in brief: as §1

[6] = Probe fluorescence ratio response to arachidonate:BSA complex, relative to ADIFAB2 (ΔR/ΔRAD2); settings: fluorescence response (R-Ro) relative to ADIFAB2; arachidonate
Method in brief: as §1

[7] = Probe fluorescence ratio response to stearate:BSA complex, relative to ADIFAB2 (ΔR/ΔRAD2); settings: fluorescence response (R-Ro) relative to ADIFAB2

Row | Molecule | ΔR/ΔRAD2 PA [1] | ΔR/ΔRAD2 OA [2] | ΔR/ΔRAD2 LNA [3] | ΔR/ΔRAD2 POA [4] | ΔR/ΔRAD2 LA [5] | ΔR/ΔRAD2 AA [6] | ΔR/ΔRAD2 SA [7]
1 | B1 | 1.1 | 0.6 | 1.3 | 1.2 | 1.1 | 0.9 | 0.4
2 | B2 | 1.0 | 0.4 | 1.2 | 1.3 | 0.8 | 0.6 | 0.2
3 | B3 | 1.0 | 0.6 | 1.2 | 1.4 | 1.0 | 0.9 | 0.4
4 | B4 | 1.1 | 0.6 | 1.4 | 1.4 | 1.1 | 1.0 | 0.3
5 | B5 | 2.2 | 1.9 | 2.8 | 3.1 | 2.6 | 1.8 | 0.7
6 | B6 | 1.5 | 0.9 | 1.9 | 2.0 | 1.6 | 1.1 | 0.4
7 | B7 | 2.0 | 1.6 | 2.8 | 2.6 | 2.5 | 1.9 | 0.8
8 | B8 | 1.9 | 1.6 | 2.7 | 2.6 | 2.6 | 1.8 | 0.9
9 | B9 | 1.5 | 0.8 | 1.7 | 1.9 | 1.5 | 1.3 | 0.4
10 | B10 | 1.9 | 2.3 | 2.6 | 2.8 | 3.1 | 2.8 | 1.2
11 | B11 | 1.0 | 1.4 | 1.2 | 1.2 | 1.5 | 1.8 | 1.7
12 | B12 | 1.3 | 0.8 | 1.6 | 1.6 | 1.3 | 1.0 | 0.4
13 | B13 | 1.1 | 0.6 | 1.8 | 2.4 | 1.2 | 1.1 | 0.4
14 | B14 | 1.3 | 0.6 | 1.5 | 1.3 | 1.1 | 0.8 | 0.3
15 | B15 | 1.6 | 1.0 | 1.9 | 2.1 | 1.7 | 1.3 | 0.5
16 | B16 | 1.1 | 0.6 | 1.5 | 1.4 | 1.1 | 1.0 | 0.3
